This data set can be described thus: protein stability index of a GFP-peptide fusion (GPS, HEK-293T) (PSI 1-6); higher = more stable.
Setting [1] is: treatment: DMSO, c terminus: a fixed tail appended.
Where [2] appears, read: treatment: MLN4924 1 uM, 8 h, c terminus: a fixed tail appended.

± gives the standard deviation.
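Also: 24-mer peptide tiles fused after GFP, lentivirally expressed, FACS-sorted into six equal bins by GFP/DsRed ratio, decoded by Illumina sequencing, PSI is the read-weighted mean bin number.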

GPEPPPVYTNLSSYSPASASSGGA [JUNB]: the protein stability index is 4.6 ± 0.5 under setting [1] and 4.76 ± 0.3 under setting [2].

Sequence GPSEPGGTHPEDHQGHSDQHHHHH [RHOBTB2] had a protein stability index under setting [1] of 5.65 ± 0.073 and a protein stability index under setting [2] of 5.32 ± 0.24.

As to GPVAGLDDSGGPTPSSYAPSHPPR [ZBTB22], the protein stability index reads like this: under setting [1], 4.92 ± 0.15; under setting [2], 4.79 ± 0.13.

Turning to GQEYAAKIINTKKLSARDHQKLER [CAMK2D], the protein stability index is, setting by setting: under setting [1], 3.96 ± 0.58; under setting [2], 3.82 ± 0.096.

As for GQGGKLWDPSVQSCKEGLSPRGPA [ZNF263], the protein stability index is, setting by setting: under setting [1], 3.9 ± 0.12; under setting [2], 4.08 ± 0.16.

On to GQPSEPEHGPSPGQDTFCQGKADG [CHIT1], for which the protein stability index reads like this: under setting [1], 5.45 ± 0.32; under setting [2], 5.63 ± 0.23.

Regarding GRCGPQAARAAGRDVAAEAVARSP [POMT2], the protein stability index is 4 ± 0.35 under setting [1] and 3.63 ± 0.15 under setting [2].

As to GRDALLDQIRQGIQLKSVADGQES [WASL], the protein stability index by setting is: under setting [1], 5.43 ± 0.36; under setting [2], 5.22 ± 0.63.

On to GRDGYDYDGYRLRVEFPRSGRGTG [SRSF1], for which the protein stability index turned out to be 3.17 ± 0.37 under setting [1] and 3.26 ± 0.36 under setting [2].

In the case of GRGLKSHAYIHSVQFSHHVFLNLH [USP39], the protein stability index by setting is: under setting [1], 2.84 ± 0.45; under setting [2], 2.62 ± 0.65.

In the case of GRYSVHNAGISFSVKKQGETVADV [MLH1], the protein stability index by setting is: under setting [1], 3.79 ± 0.25; under setting [2], 3.85 ± 0.37.

On to GSGAASSSGEDKENDGFVFKMPWK [CDC25B], for which the protein stability index by setting is: under setting [1], 4.025 ± 0.022; under setting [2], 4.37 ± 0.34.

Consider GSLPWQGLKADTLKERYQKIGDTK [CSNK1G1], for which the protein stability index was determined as 4.05 ± 0.083 under setting [1] and 4.19 ± 0.29 under setting [2].

Take GSPFGLEEPQWVPDKECRRCMQCD [ZFYVE21]: the protein stability index was 4.1 ± 0.29 under setting [1] and 4.07 ± 0.28 under setting [2].

As for GSSIPWNHLPDPEIFRQRFRQFGY [ZNF24], the protein stability index under setting [1] is 2.49 ± 0.25 and the protein stability index under setting [2] was 2.66 ± 0.14.

As to GTENGAIDAVPVDENLFTGEDLDE [ZC3H15], the protein stability index under setting [1] is 5.7 ± 0.3 and the protein stability index under setting [2] turned out to be 5.52 ± 0.44.

As to GTIKKIIHQETVSKNGNGLKNTPR [PCMTD2], the protein stability index runs as follows: under setting [1], 3.68 ± 0.55; under setting [2], 4.03 ± 0.4.

GWRSLWLGWGPTALRDVPFSALYW [SLC25A39]: the protein stability index runs as follows: under setting [1], 2.22 ± 0.41; under setting [2], 2.99 ± 0.76.

Consider HADILAAVETRLSLLNMTFMKYVD [FBXO28], for which the protein stability index runs as follows: under setting [1], 2.84 ± 0.69; under setting [2], 2.75 ± 0.65.

With HENETLASLKSEAESLKGKLEEER [GNB5], the protein stability index is 5.29 ± 0.33 under setting [1] and 5.34 ± 0.33 under setting [2].

Turning to HFFALKVMSIPDVIRLKQEQHVHN [PRKX], the protein stability index worked out at 2.25 ± 0.28 under setting [1] and 2.17 ± 0.1 under setting [2].

For HFKPHGFSSDKAKAGSSEWLAVDG [ATF4], the protein stability index stood at 3.89 ± 0.18 under setting [1] and 3.91 ± 0.17 under setting [2].

On to HGEEQRITIEPGTSYRLQGLKPNS [PTPRD], for which the protein stability index is, setting by setting: under setting [1], 4.4 ± 0.18; under setting [2], 4.67 ± 0.29.

As for HLALHAASSGDLTCGVCALELGST [PLAGL1], the protein stability index runs as follows: under setting [1], 3.01 ± 0.48; under setting [2], 2.93 ± 0.24.

For the sequence HMEDPRRAGKMLMTLPLLRQTSTK [ESRRG], the protein stability index turned out to be 3.63 ± 0.16 under setting [1] and 3.7 ± 0.28 under setting [2].

On to HNDLWESWFVPDPAGIFKLNHHS [GLT8D2], for which the protein stability index turned out to be 2.87 ± 0.15 (treatment: DMSO, c terminus: native) and 2.9 ± 0.41 (treatment: MLN4924 1 uM, 8 h, c terminus: native).

Take HNQVEAAWLEGRIRQEFDKLREFL [TRIM35]: the protein stability index under setting [1] came to 3.5 ± 0.52 and the protein stability index under setting [2] is 3.75 ± 0.48.

Take HPDPAPFCADNPSELPPPMERTGG [DVL3]: the protein stability index runs as follows: under setting [1], 3.41 ± 0.55; under setting [2], 4.17 ± 0.49.

Regarding HRQETVECLKKFNARRKLKGAILT [CAMK2B], the protein stability index worked out at 2.79 ± 0.24 under setting [1] and 2.98 ± 0.29 under setting [2].

HSALGGTKKKKKTIVTDVFQGSMR [USP39]: the protein stability index is, setting by setting: under setting [1], 4.02 ± 0.4; under setting [2], 4.14 ± 0.058.

On to HSLTPVSSDHLFLFGGFTTDKQPL [KLHDC2], for which the protein stability index stood at 2.95 ± 0.46 under setting [1] and 3.21 ± 0.27 under setting [2].

Turning to HSSELTEQKLRACLEGSINEHSAH [RPAIN], the protein stability index reads like this: under setting [1], 4.55 ± 0.26; under setting [2], 4.44 ± 0.12.

In the case of HWKTWLAIKCSPSLHVDDRERMEL [RIPK4], the protein stability index came out at 2.38 ± 0.26 under setting [1] and 2.53 ± 0.58 under setting [2].

As for HWTSAPLTEASAHSHPPEIKDQGG [MAP2], the protein stability index by setting is: under setting [1], 5.14 ± 0.14; under setting [2], 5.18 ± 0.18.

Consider HYLIFDLVTGGELFEDIVAREYYS [CAMK2A], for which the protein stability index runs as follows: under setting [1], 2.71 ± 0.72; under setting [2], 2.54 ± 0.66.

For the sequence ICFKEMLANSWNCLPKHLLHSVNQ [KLHDC2], the protein stability index by setting is: under setting [1], 2.73 ± 0.43; under setting [2], 2.63 ± 0.65.

For the sequence ICGIICIGPNVLMVHKRSHTGERP [IKZF1], the protein stability index was determined as 2.46 ± 0.28 under setting [1] and 2.02 ± 0.38 under setting [2].

For the sequence IDDLFAFVIKMPVMYRIGCLRDDV [CLPTM1], the protein stability index stood at 3.07 ± 0.97 under setting [1] and 3.2 ± 0.74 under setting [2].

Regarding IEKCTTPLSDDHDEKYGVPSLEEL [CRY1], the protein stability index turned out to be 5.11 ± 0.25 under setting [1] and 5.14 ± 0.18 under setting [2].

As for IEKFIREPSLKATMGLAGRARVKE [ALG2], the protein stability index is, setting by setting: under setting [1], 3.6 ± 0.18; under setting [2], 3.62 ± 0.33.

Consider IERGASLEEVNDEGYTPLMEAARE [ANKRD17], for which the protein stability index is 5.34 ± 0.23 under setting [1] and 5.06 ± 0.21 under setting [2].

IFQIGVLGFGPTYVVLAYTLPPAS [SOAT1]: the protein stability index is, setting by setting: under setting [1], 2.97 ± 0.27; under setting [2], 3.23 ± 0.68.

As for IGHFNTASGVGFILGPVVGGYLTE [MFSD9], the protein stability index runs as follows: under setting [1], 2.38 ± 0.53; under setting [2], 2.31 ± 0.39.

Take IHIIDFGLAKEYIDPETKKHIPYR [CSNK1G3]: the protein stability index is 2.1 ± 0.36 under setting [1] and 2.33 ± 0.17 under setting [2].

As to IINTKKLSARDHQKLEREARICRL [CAMK2A], the protein stability index under setting [1] was determined as 3.19 ± 0.23 and the protein stability index under setting [2] amounted to 3.27 ± 0.25.

ILDTDEYVLKYMESNAAQYSPEAL [EFHC1]: the protein stability index worked out at 3.99 ± 0.31 under setting [1] and 3.96 ± 0.38 under setting [2].

On to ILENTSKVPAPKDVLAHQVPNAKK [NOP53], for which the protein stability index was 4.23 ± 0.27 under setting [1] and 4.43 ± 0.16 under setting [2].

Take ILEVLRSSPMVQVDEKGEKVRPSH [LARP4]: the protein stability index was 3.61 ± 0.27 under setting [1] and 3.71 ± 0.12 under setting [2].

As to ILFYCHFPDLLLTKRDSFLKRLYR [ALG2], the protein stability index is, setting by setting: under setting [1], 2.81 ± 0.6; under setting [2], 2.18 ± 0.51.

As to ILINNGSRIKGWWVFHHYVSTFLS [TMEM120A], the protein stability index under setting [1] was 2.17 ± 0.64 and the protein stability index under setting [2] came out at 2.38 ± 0.42.

In turn, ILNPHVHVIGEDAACIAYIRLTQY [CAMK2B] showed a protein stability index under setting [1] of 2.51 ± 0.63 and a protein stability index under setting [2] of 2.31 ± 0.27.

Regarding ILTLPEMMRMFSENLAHHLEIDSG [TRIM15], the protein stability index was found to be 2.44 ± 0.3 under setting [1] and 2.44 ± 0.31 under setting [2].

Turning to INQSFTGAERKAALCELLEKETQI [IQUB], the protein stability index by setting is: under setting [1], 4.38 ± 0.23; under setting [2], 4.01 ± 0.19.

As for INQVLLFLLIVTLCVILYKKVHKG [GLT8D2], the protein stability index is, setting by setting: under setting [1], 3.12 ± 0.29; under setting [2], 3.04 ± 0.9.

Turning to IPEGLNYSENAPFHLSLFQGWMNL [PLD5], the protein stability index is, setting by setting: under setting [1], 2.2 ± 0.55; under setting [2], 1.91 ± 0.38.

On to IPTVKPLKPRPEPPKKPSNWRRKH [ZC2HC1A], for which the protein stability index is 4.2 ± 0.24 under setting [1] and 4.24 ± 0.11 under setting [2].

On to IQKNKLKLTREQEELEEALEVERQ [MNAT1], for which the protein stability index is 5.23 ± 0.31 under setting [1] and 5.24 ± 0.17 under setting [2].

Regarding ISESGGLNWKMTLCLLVAWSIVGM [SLC6A17], the protein stability index is, setting by setting: under setting [1], 2.71 ± 0.28; under setting [2], 2.83 ± 0.67.

In turn, ISQQDPESDSQGQGNGLFYSSGPQ [ZC2HC1C] returned a protein stability index under setting [1] of 4.83 ± 0.48 and a protein stability index under setting [2] of 5.08 ± 0.19.

On to IVGSQGAEGALEEVPLEVLRQRES [TBC1D10A], for which the protein stability index under setting [1] was determined as 5.17 ± 0.34 and the protein stability index under setting [2] came to 5.31 ± 0.26.

With IYGHVTLMRAQRNYMVQTEDQYIF [PTPRD], the protein stability index was determined as 2.61 ± 0.58 under setting [1] and 2.87 ± 1.1 under setting [2].

For KAENARLVVNIDNAKLASDDFRSK [KRT34], the protein stability index came out at 4.62 ± 0.16 under setting [1] and 4.71 ± 0.14 under setting [2].

For the sequence KAFGVGVAYRSLGRFEQLGKTAAS [FSD1], the protein stability index was 2.77 ± 0.3 under setting [1] and 2.69 ± 0.24 under setting [2].

Regarding KAGRRMFPACRVSVTGLDPEARYL [TBX6], the protein stability index turned out to be 2.36 ± 0.56 under setting [1] and 1.86 ± 0.2 under setting [2].

As to KALEILRKDFSELRSAGVEQLMYI [FAM50A], the protein stability index reads like this: under setting [1], 2.55 ± 0.31; under setting [2], 2.38 ± 0.49.

For KAMAKLSKLASNGTPMGTFAPLWE [FCHO1], the protein stability index worked out at 2.23 ± 0.41 under setting [1] and 2.48 ± 0.12 under setting [2].

KDFLTGMCLFLQSLRQKQPERLCS [GMPPB]: the protein stability index by setting is: under setting [1], 2.25 ± 0.44; under setting [2], 2.23 ± 0.36.

Consider KDMSESQDEVPDEVENQFILRLPL [TAF7L], for which the protein stability index runs as follows: under setting [1], 4.41 ± 0.26; under setting [2], 4.85 ± 0.15.

With KDRASPADLRTNHTLNNLVEKLLR [TRIM35], the protein stability index by setting is: under setting [1], 2.44 ± 0.27; under setting [2], 2.48 ± 0.13.

On to KEACDQHGPDLYPKFKKWCDDYFF [CPOX], for which the protein stability index by setting is: under setting [1], 2.31 ± 0.27; under setting [2], 2.58 ± 0.32.

For the sequence KEDASEFQILKYLFQIDVYDFMNS [MIA2], the protein stability index runs as follows: under setting [1], 2.5 ± 0.65; under setting [2], 2.76 ± 0.24.

KEHPDVQLLEDAILIIQGVLSDIN [NET1]: the protein stability index reads like this: under setting [1], 2.49 ± 0.73; under setting [2], 2.47 ± 0.23.
